In patent publication US9267129B2, “Compositions and methods for conferring herbicide resistance” (BEN-GURION UNIVERSITY OF THE NEGEV RESEARCH AND DEVELOPMENT …, priority 2011, dated 2016):

B1: Wild-type: Parietochloris incisa acetohydroxyacid synthase (AHAS), SEQ ID NO: 1, expressed as N-terminal hexahistidine-tagged protein (protein, listed as Parietochloris incisa)
chain: MQGTMRPTAGALQQTVGCWHVPAGIPHAQQALRGRILPEELKQRCSATKPRAARQSAVTAAKLAEGKAGTPSRSLRQQPAAPQQQQQQQDSNELVALREAAKASLSSPAPAEWVDRFGSEPRKGADILVQCLEREGAFRVFAYPGGASMEIHQALTRSGIIRNILCRHEQGEIFAAEGYAKCTGDVGVCIATSGPGATNLVTGLADAMLDSVPLVAITGQVPRKMIGTDGFQETPIVEVTRQITKHNFLVMDLDDLPRIMKEAFYLARTGRPGPVLVDVPKDIQQQLAVPDWDTPMAISGYMSRLPAPPNPSQLAAVVRALKEAKRPTLYVGGGALDSSAELREFVRLTGIPVAQTLMGLGTFPEEDPLALQMLGMHGTVYANYAVNDSDLLLAFGVRFDDRVTGKLEAFASRACIVHIDIDPAEICKNKEAHIPICADLRASLIALNELLRRDPLPEGAFADWRAAIEAKKQEFPMTFPERDDVIIPQRAIQMLYEETNGEAIISTGVGQHQMWAAQWYQYNEPRRWVTSGGLGSMGFGLPSALGAAAVAYDGTDGRPKKVVVDIDGDGSFLMNCQELATAAVEGLETKIMILNNQHLGMVVQWEDRFYKANRAHTYLGHRANEYHTTLDESHIFPDFVMMAKSCGVPGRRVIKPEELRGAIREMLDTPGPFLLDVMVPHVEHVLPMIPGGGSFKDIITKGDGRDEY
modifications: N-terminal hexahistidine tag
B2: Mutant: Parietochloris incisa AHAS with Trp605 substituted by Serine (W605S), SEQ ID NO: 2, hexahistidine-tagged (protein, listed as Parietochloris incisa)
chain: MQGTMRPTAGALQQTVGCWHVPAGIPHAQQALRGRILPEELKQRCSATKPRAARQSAVTAAKLAEGKAGTPSRSLRQQPAAPQQQQQQQDSNELVALREAAKASLSSPAPAEWVDRFGSEPRKGADILVQCLEREGAFRVFAYPGGASMEIHQALTRSGIIRNILCRHEQGEIFAAEGYAKCTGDVGVCIATSGPGATNLVTGLADAMLDSVPLVAITGQVPRKMIGTDGFQETPIVEVTRQITKHNFLVMDLDDLPRIMKEAFYLARTGRPGPVLVDVPKDIQQQLAVPDWDTPMAISGYMSRLPAPPNPSQLAAVVRALKEAKRPTLYVGGGALDSSAELREFVRLTGIPVAQTLMGLGTFPEEDPLALQMLGMHGTVYANYAVNDSDLLLAFGVRFDDRVTGKLEAFASRACIVHIDIDPAEICKNKEAHIPICADLRASLIALNELLRRDPLPEGAFADWRAAIEAKKQEFPMTFPERDDVIIPQRAIQMLYEETNGEAIISTGVGQHQMWAAQWYQYNEPRRWVTSGGLGSMGFGLPSALGAAAVAYDGTDGRPKKVVVDIDGDGSFLMNCQELATAAVEGLETKIMILNNQHLGMVVQSEDRFYKANRAHTYLGHRANEYHTTLDESHIFPDFVMMAKSCGVPGRRVIKPEELRGAIREMLDTPGPFLLDVMVPHVEHVLPMIPGGGSFKDIITKGDGRDEY
modifications: hexahistidine tag

Test: AHAS catalytic activity, pyruvate dependence
Type: biochemical, Parietochloris incisa
Protocol: To overexpress the hexahistidine (6xHis)-tagged PiAHAS genes in E. coli strain JM109, plasmids pQE-WT and pQE-MUT were used. These plasmids were constructed by inserting the BamHI-SalI fragment containing the cloned PiAHAS wt and mutant genes into plasmid pQE30 (Qiagen, Hilden, Germany). These plasmids express PiAHAS fused at its N-terminus to the pQE30 6xHis leader. pQE-WT and pQE-MUT were transformed into E. coli for expression. The transformed cells were grown, IPTG induced, and harvested as described previously (Hill C et al. Purification of Escherichia coli acetohydroxyacid synthase isoenzyme II and reconstitution of active enzyme from its individual pure subunits. Biochem. J. 1997, 327, 891-898). Bacterial cells were disrupted by sonication in a binding buffer with 20 mM imidazol, 0.5 M sodium chloride, 50 mM sodium dihydrogen phosphate (pH 8.0), 20 μM FAD and 50 μl/g cells of protease inhibitor cocktail (Sigma-Aldrich, Israel). After 30 min of centrifugation at 20,000×g, the supernatant was loaded on a 1.5×8 cm column of Ni2+-nitrilotriacetatic acid-agarose (Qiagen) previously washed with the binding buffer. The column was then washed with 80 ml of the binding buffer, and the His-AHAS protein eluted with 0.4 M imidazol in the binding buffer. The fractions were dialyzed against 50 mM potassium phosphate buffer (pH 7.6), containing 20 μM FAD. The protein was concentrated for storage at −20 °C by dialysis against same buffer, containing 50% glycerol. The AHAS catalytic activity was determined as previously described (Bar-Ilan A et al. Binding and activation of thiamin diphosphate in acetohydroxyacid synthase. Biochemistry (N.Y.) 2001, 40, 11946-11954). The reactions were carried for 20 min at 37 °C in 0.1 M potassium phosphate buffer (pH 7.6), containing 10 mM magnesium chloride, 0.1 mM ThDP, 75 μM FAD, 5 mM EDTA, 1 mM DTT with 100 mM pyruvate as substrate, except where otherwise indicated. The activity is expressed in units (U) (1 U=1 μmol of acetolactate formed min^−1). Km for pyruvate and Ki for SMM were determined by varying the concentration of the factor in question. Protein concentration was determined by the dye-binding method of Bradford (Bradford MM. A rapid and sensitive method for the quantitation of microgram quantities of protein utilizing the principle of protein-dye binding. Anal. Biochem. 1976, 72, 248-254), with bovine serum albumin as standard. Km calculations were fit with the program “Sigma-Plot” to Michaelis-Menten equation. For Ki calculations, the lines were fit to equations: V=Vo×Ki/(Ki+[SMM]), for wild-type; V=Vf+(Vo−Vf)×Ki/(Ki+[SMM]), for mutant.
Enzymatic activity of the wild type and mutant forms of AHAS in the presence of different Pyruvate substrate concentrations was assayed with 6.9 μg/ml of PiAHAS wild-type protein and 11.5 μg/ml of mutant protein (FIG. 5) and the specific activity and Km were calculated.

Molecule | Km (37° C., pH 7.6) [mM] | Specific activity (37° C., pH 7.6) [U × mg^−1] | Specific activity (purified protein) [U/mg] | decrease in affinity to the Pyruvate substrate compared to wild type (mutant versus wild type) [fold] | decrease in specific / enzymatic activity compared to wild type (mutant versus wild type) [fold]
B1 | 49.4 ± 2.1 | 3.00 ± 0.05 | 3 |  | 
B2 | 71.7 ± 2.9 | 1.46 ± 0.03 |  | 2 | 2
